± gives the uncertainty stated by the source.

The data set in a line: abundance fitness (aPCA) (normalised: wild type 0, dead -1); higher = more abundant; growth selection in yeast, the domain comes from the species named. To be noted: Homo sapiens.
“NEDD4-like E3 ubiquitin-protein ligase WWP2 M440I, O00308” came in with an abundance fitness of -0.021 ± 0.076.
As for “NEDD4-like E3 ubiquitin-protein ligase WWP2 M440K, O00308”, the figure is 0.4 ± 0.12.
As for “NEDD4-like E3 ubiquitin-protein ligase WWP2 M440L, O00308”, the figure is -0.065 ± 0.1; as for “NEDD4-like E3 ubiquitin-protein ligase WWP2 M440N, O00308”, 0.283 ± 0.12.
The result for “NEDD4-like E3 ubiquitin-protein ligase WWP2 M440Q, O00308” reads 0.206 ± 0.11; that for “NEDD4-like E3 ubiquitin-protein ligase WWP2 M440R, O00308”, -0.103 ± 0.087; that for “NEDD4-like E3 ubiquitin-protein ligase WWP2 M440S, O00308”, -0.102 ± 0.086.
Consider “NEDD4-like E3 ubiquitin-protein ligase WWP2 M440T, O00308”, for which the abundance fitness is -0.117 ± 0.033.
The result for “NEDD4-like E3 ubiquitin-protein ligase WWP2 M440V, O00308” reads -0.114 ± 0.079; that for “NEDD4-like E3 ubiquitin-protein ligase WWP2 M440W, O00308”, -0.831 ± 0.3; that for “NEDD4-like E3 ubiquitin-protein ligase WWP2 M452A, O00308”, -0.01 ± 0.048.
As for “NEDD4-like E3 ubiquitin-protein ligase WWP2 M452C, O00308”, the figure is 0.009 ± 0.055; as for “NEDD4-like E3 ubiquitin-protein ligase WWP2 M452D, O00308”, -0.12 ± 0.056.
The result for “NEDD4-like E3 ubiquitin-protein ligase WWP2 M452E, O00308” reads 0.046 ± 0.046.
“NEDD4-like E3 ubiquitin-protein ligase WWP2 M452F, O00308”: the abundance fitness was -0.097 ± 0.05.
On to “NEDD4-like E3 ubiquitin-protein ligase WWP2 M452G, O00308”, for which the abundance fitness is -0.197 ± 0.051.
The result for “NEDD4-like E3 ubiquitin-protein ligase WWP2 M452H, O00308” reads -0.258 ± 0.066.
The result for “NEDD4-like E3 ubiquitin-protein ligase WWP2 M452I, O00308” reads -0.001 ± 0.053; that for “NEDD4-like E3 ubiquitin-protein ligase WWP2 M452K, O00308”, -0.36 ± 0.11.
Regarding “NEDD4-like E3 ubiquitin-protein ligase WWP2 M452L, O00308”, the abundance fitness was -0.108 ± 0.042.
Regarding “NEDD4-like E3 ubiquitin-protein ligase WWP2 M452P, O00308”, the abundance fitness was -0.337 ± 0.054.
The result for “NEDD4-like E3 ubiquitin-protein ligase WWP2 M452Q, O00308” reads -0.107 ± 0.063; that for “NEDD4-like E3 ubiquitin-protein ligase WWP2 M452R, O00308”, -0.103 ± 0.035; that for “NEDD4-like E3 ubiquitin-protein ligase WWP2 M452S, O00308”, -0.069 ± 0.04.
The result for “NEDD4-like E3 ubiquitin-protein ligase WWP2 M452T, O00308” reads -0.017 ± 0.033.
As for “NEDD4-like E3 ubiquitin-protein ligase WWP2 M452V, O00308”, the abundance fitness worked out at 0.034 ± 0.038.
As for “NEDD4-like E3 ubiquitin-protein ligase WWP2 M452W, O00308”, the figure is -0.194 ± 0.057; as for “NEDD4-like E3 ubiquitin-protein ligase WWP2 M452Y, O00308”, -0.159 ± 0.049.
Turning to “NEDD4-like E3 ubiquitin-protein ligase WWP2 N466A, O00308”, the abundance fitness is -0.242 ± 0.034.
“NEDD4-like E3 ubiquitin-protein ligase WWP2 N466C, O00308” had an abundance fitness of -0.169 ± 0.048.
As for “NEDD4-like E3 ubiquitin-protein ligase WWP2 N466D, O00308”, the figure is -0.377 ± 0.064; as for “NEDD4-like E3 ubiquitin-protein ligase WWP2 N466E, O00308”, -0.238 ± 0.069.
The substance “NEDD4-like E3 ubiquitin-protein ligase WWP2 N466F, O00308” came in with an abundance fitness of -0.145 ± 0.071.
Consider “NEDD4-like E3 ubiquitin-protein ligase WWP2 N466G, O00308”, for which the abundance fitness is -0.184 ± 0.051.
As for “NEDD4-like E3 ubiquitin-protein ligase WWP2 N466H, O00308”, the figure is -0.169 ± 0.075; as for “NEDD4-like E3 ubiquitin-protein ligase WWP2 N466I, O00308”, -0.261 ± 0.079.
Consider “NEDD4-like E3 ubiquitin-protein ligase WWP2 N466K, O00308”, for which the abundance fitness was -0.202 ± 0.07.
The result for “NEDD4-like E3 ubiquitin-protein ligase WWP2 N466M, O00308” reads -0.188 ± 0.07; that for “NEDD4-like E3 ubiquitin-protein ligase WWP2 N466P, O00308”, -0.636 ± 0.075.
The result for “NEDD4-like E3 ubiquitin-protein ligase WWP2 N466Q, O00308” reads -0.06 ± 0.068; that for “NEDD4-like E3 ubiquitin-protein ligase WWP2 N466R, O00308”, -0.164 ± 0.043; that for “NEDD4-like E3 ubiquitin-protein ligase WWP2 N466S, O00308”, -0.175 ± 0.049.
As for “NEDD4-like E3 ubiquitin-protein ligase WWP2 N466T, O00308”, the figure is -0.255 ± 0.063; as for “NEDD4-like E3 ubiquitin-protein ligase WWP2 N466V, O00308”, -0.212 ± 0.048; as for “NEDD4-like E3 ubiquitin-protein ligase WWP2 N466W, O00308”, -0.513 ± 0.047.
With “NEDD4-like E3 ubiquitin-protein ligase WWP2 N466Y, O00308”, the abundance fitness was -0.366 ± 0.085.
As for “NEDD4-like E3 ubiquitin-protein ligase WWP2 P444A, O00308”, the figure is -0.089 ± 0.059; as for “NEDD4-like E3 ubiquitin-protein ligase WWP2 P444D, O00308”, 0.148 ± 0.061.
The result for “NEDD4-like E3 ubiquitin-protein ligase WWP2 P444F, O00308” reads 0.098 ± 0.067; that for “NEDD4-like E3 ubiquitin-protein ligase WWP2 P444G, O00308”, 0.089 ± 0.049.
The result for “NEDD4-like E3 ubiquitin-protein ligase WWP2 P444H, O00308” reads 0.015 ± 0.037; that for “NEDD4-like E3 ubiquitin-protein ligase WWP2 P444I, O00308”, -0.2 ± 0.049; that for “NEDD4-like E3 ubiquitin-protein ligase WWP2 P444K, O00308”, 0.098 ± 0.071.
“NEDD4-like E3 ubiquitin-protein ligase WWP2 P444L, O00308” yielded an abundance fitness of 0.036 ± 0.053.
The result for “NEDD4-like E3 ubiquitin-protein ligase WWP2 P444M, O00308” reads 0.09 ± 0.062; that for “NEDD4-like E3 ubiquitin-protein ligase WWP2 P444N, O00308”, 0.105 ± 0.038; that for “NEDD4-like E3 ubiquitin-protein ligase WWP2 P444Q, O00308”, 0.065 ± 0.068.
The substance “NEDD4-like E3 ubiquitin-protein ligase WWP2 P444R, O00308” came in with an abundance fitness of 0.083 ± 0.041.
The substance “NEDD4-like E3 ubiquitin-protein ligase WWP2 P444T, O00308” gave an abundance fitness of 0.045 ± 0.063.
The result for “NEDD4-like E3 ubiquitin-protein ligase WWP2 P444V, O00308” reads 0.065 ± 0.058; that for “NEDD4-like E3 ubiquitin-protein ligase WWP2 P444W, O00308”, -0.059 ± 0.05; that for “NEDD4-like E3 ubiquitin-protein ligase WWP2 P447A, O00308”, -0.234 ± 0.043.
The result for “NEDD4-like E3 ubiquitin-protein ligase WWP2 P447C, O00308” reads -0.458 ± 0.07; that for “NEDD4-like E3 ubiquitin-protein ligase WWP2 P447D, O00308”, -0.304 ± 0.083; that for “NEDD4-like E3 ubiquitin-protein ligase WWP2 P447E, O00308”, -0.185 ± 0.062.
Turning to “NEDD4-like E3 ubiquitin-protein ligase WWP2 P447F, O00308”, the abundance fitness was -0.331 ± 0.088.
As for “NEDD4-like E3 ubiquitin-protein ligase WWP2 P447H, O00308”, the figure is -0.381 ± 0.075; as for “NEDD4-like E3 ubiquitin-protein ligase WWP2 P447I, O00308”, -0.433 ± 0.051; as for “NEDD4-like E3 ubiquitin-protein ligase WWP2 P447K, O00308”, -0.17 ± 0.052.
The result for “NEDD4-like E3 ubiquitin-protein ligase WWP2 P447L, O00308” reads -0.228 ± 0.048; that for “NEDD4-like E3 ubiquitin-protein ligase WWP2 P447M, O00308”, -0.203 ± 0.045.
As to “NEDD4-like E3 ubiquitin-protein ligase WWP2 P447N, O00308”, the abundance fitness was -0.11 ± 0.075.
As for “NEDD4-like E3 ubiquitin-protein ligase WWP2 P447Q, O00308”, the figure is -0.289 ± 0.07; as for “NEDD4-like E3 ubiquitin-protein ligase WWP2 P447R, O00308”, -0.316 ± 0.04; as for “NEDD4-like E3 ubiquitin-protein ligase WWP2 P447S, O00308”, -0.332 ± 0.046.
In turn, “NEDD4-like E3 ubiquitin-protein ligase WWP2 P447T, O00308” returned an abundance fitness of -0.541 ± 0.067.
The result for “NEDD4-like E3 ubiquitin-protein ligase WWP2 P447V, O00308” reads -0.633 ± 0.04.
As for “NEDD4-like E3 ubiquitin-protein ligase WWP2 P447W, O00308”, the figure is -0.659 ± 0.07; as for “NEDD4-like E3 ubiquitin-protein ligase WWP2 P447Y, O00308”, -0.5 ± 0.081.
